Data: patent US20160251695
Substitutions are numbered along the chain they refer to.

T1: α-fructosyl-valyl-histidyl-leucyl-threonyl-proryl-glutamic acid
T1 chain: VHLTPE

B1: CFP-T7-H2-62N (protein)
chain: MTSNRADTRVIVVGGGGTIGSSTALHLVRSGYAPANITVLDTFEIPSAQSAGHDLNKIMGINLRNKVDLQMSLEARQMWKEDELFQPFFHNTGRMDCEHTPEGIEDLKKLYQALHDAGAGLEKTHAWLDNEDEILSKMPLLQRDQIQGWKAIWSQDGGWLAAAKAINAIGQFLKERGVKFGFGGAGSFKQPLFDDEGTTCIGVETADGTKYYADKVVLAAGAWSPTLVDLEDQCCSKAWVYAHIQLTPEEAAEYKGVPVVYNGEFGFFFEPDEFGVIKVCDEFPGFSRFKEHQPYGAPSPKRISVPRSHAKHPTDTYPDASEVSIKKAIATFLPRFQDKELFNRALCWCTDTADAALLMCEHPKWKNFILATGDSGHSFKILPNVGKYVVELIEGRLPEEMAYQWRWRPGGDALKSRRAAPPKDLADMPGWKHDPKL
B2: CFP-T7-H26 (protein)
chain: B1 chain with N62D, L63H, D106K, A113K
B3: CFP-T7-H25 (protein)
chain: B1 chain with N62D, L63D, D106K, A113K
B4: CFP-T7-H24 (protein)
chain: B1 chain with N62D, L63A, D106K, A113K
B5: CFP-T7-H27 (protein)
chain: B1 chain with N62D, L63K, D106K, A113K
B6: CFP-T7-H11 (protein)
chain: B1 chain with N62D, D106K
B7: CFP-T7-H2-62Q (protein)
chain: B1 chain with N62Q
B8: CFP-T7-H8 (protein)
chain: B1 chain with N62D, R64E
B9: CFP-T7-H2 (protein)
chain: B1 chain with N62A
B10: CFP-T7-H7 (protein)
chain: B1 chain with N62D, R64A
B11: CFP-T7-H13 (protein)
chain: B1 chain with N62D, A113K
B12: CFP-T7-H14 (protein)
chain: B1 chain with N62D, A113R
B13: CFP-T7-H2-62E (protein)
chain: B1 chain with N62E
B14: CFP-T7-H12 (protein)
chain: B1 chain with N62D, D106R
B15: CFP-T7-H10 (protein)
chain: B1 chain with N62D, D106A
B16: CFP-T7-H6 (protein)
chain: B1 chain with N62D
B17: CFP-T7-H9 (protein)
chain: B1 chain with N62D, R64H

Target: T1, α-fructosyl-valyl-histidyl-leucyl-threon …
Settings: for αF6P oxidation activity: scale: relative value

Protein	αF6P oxidation activity	αF6P oxidation activity ratio (relative value (CFP-T7-H6 = 100))	other results
B1	–	–	αF6P oxidation activity ratio (relative value (CFP-T7-H2 = 100)): 120
B2	84.3	–	αF6P oxidation activity ratio (relative value (CFP-T7-H20 = 100)): 142; αF6P oxidation activity ratio (relative value (CFP-T7-H26 = 100)): 100
B3	–	–	αF6P oxidation activity ratio (relative value (CFP-T7-H20 = 100)): 24
B4	86.7	–	αF6P oxidation activity ratio (relative value (CFP-T7-H20 = 100)): 123
B5	–	–	αF6P oxidation activity ratio (relative value (CFP-T7-H20 = 100)): 7
B6	12.5	951	–
B7	–	–	αF6P oxidation activity ratio (relative value (CFP-T7-H2 = 100)): 11
B8	–	2	–
B9	0.0735	–	αF6P oxidation activity ratio (relative value (CFP-T7-H2 = 100)): 100
B10	–	17	–
B11	4.33	207	–
B12	4.22	183	–
B13	–	–	αF6P oxidation activity ratio (relative value (CFP-T7-H2 = 100)): 21
B14	11.6	636	–
B15	–	301	–
B16	3	100	αF6P oxidation activity ratio (relative value (CFP-T7-H2 = 100)): 513
B17	–	44	–
